The values below are quoted from earlier work in paper PMC9858354.

The Kd is the concentration at which binding is half-saturated.

The series has as its target CCRL2 (Homo sapiens) (UniProt O00421). The series can be described thus: radioligand.

CCRL2 (Homo sapiens), sequence (O00421 whole entry): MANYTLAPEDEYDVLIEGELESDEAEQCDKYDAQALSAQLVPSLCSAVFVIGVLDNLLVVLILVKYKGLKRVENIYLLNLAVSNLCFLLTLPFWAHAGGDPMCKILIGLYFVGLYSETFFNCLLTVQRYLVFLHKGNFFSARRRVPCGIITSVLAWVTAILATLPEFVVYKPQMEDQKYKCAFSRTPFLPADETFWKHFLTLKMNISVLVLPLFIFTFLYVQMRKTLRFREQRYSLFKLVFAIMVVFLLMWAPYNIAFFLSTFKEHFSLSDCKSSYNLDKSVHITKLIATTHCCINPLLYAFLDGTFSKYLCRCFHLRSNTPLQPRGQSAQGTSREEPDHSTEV
chemerin, sequence (Q99969 21-157): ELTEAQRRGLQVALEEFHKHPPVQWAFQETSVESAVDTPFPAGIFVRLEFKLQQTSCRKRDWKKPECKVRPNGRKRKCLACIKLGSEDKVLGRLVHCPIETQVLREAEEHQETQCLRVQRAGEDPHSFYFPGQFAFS

In the case of chemerin (from UniProt Q99969), the Kd was 2.35 nM.
